How the values were obtained:
most pathogenic bacteria = test: Antibacterial activity of apolactoferrin in vitro, most bacteria; type: cell-based; conditions: most of the bacteria
Description: (§1) Therefore, even though the lactoferrins have very weak antibacterial activity in vitro, it is questionable that they exert direct antibacterial activity against bacteria infecting mammals.
(§2) The minimum inhibitory concentration of apolactoferrin against
(§3) bacteria on the agar-plate medium.

[1] = tested on: Ser. marcescens IFO 12648; test: MIC of apolactoferrin on agar-plate medium; type: cell-based, Serratia marcescens
Description: as §2, §3

[2] = tested on: Kleb. pneumoniae IFO 3512; test: MIC of apolactoferrin on agar-plate medium; type: cell-based, Klebsiella pneumoniae
Description: as §2, §3

Kleb. pneumoniae 3K25 = test: MIC of apolactoferrin on agar-plate medium; type: cell-based, Klebsiella pneumoniae
Description: as §2, §3

[3] = tested on: Kleb. pneumoniae ATCC 10031; test: MIC of apolactoferrin on agar-plate medium; type: cell-based, Klebsiella pneumoniae
Description: as §2, §3

bacteria = conditions: iron-free lactoferrin; previous studies; cited from earlier work
Citrobacter freundii 2 = test: MIC of apolactoferrin on agar-plate medium; type: cell-based
Description: as §2, §3

Pr. inconstans GN 627 = test: MIC of apolactoferrin on agar-plate medium; type: cell-based
Description: as §2, §3

Serratia marcescens No 2 = test: MIC of apolactoferrin on agar-plate medium; type: cell-based
Description: as §2, §3

[4] = tested on: Serratia marcescens No 78; test: MIC of apolactoferrin on agar-plate medium; type: cell-based
Description: as §2, §3

Salmonella paratyphi B = test: MIC of apolactoferrin on agar-plate medium; type: cell-based
Description: as §2, §3

Pr. rettgeri GN624 = test: MIC of apolactoferrin on agar-plate medium; type: cell-based
Description: as §2, §3

Proteus vulgaris GN76 = test: MIC of apolactoferrin on agar-plate medium; type: cell-based
Description: as §2, §3

[5] = tested on: Proteus vulgaris IFO 3851; test: MIC of apolactoferrin on agar-plate medium; type: cell-based
Description: as §2, §3

Shigella flexineri = test: MIC of apolactoferrin on agar-plate medium; type: cell-based
Description: as §2, §3

Vibrio cholerae 569B = test: MIC of apolactoferrin on agar-plate medium; type: cell-based
Description: as §2, §3

[6] = tested on: Pseudomonas aeruginosa E 7; test: MIC of apolactoferrin on agar-plate medium; type: cell-based
Description: as §2, §3

Escherichia coli C11 = test: MIC of apolactoferrin on agar-plate medium; type: cell-based
Description: as §2, §3

Proteus mirabilis 1287 = test: MIC of apolactoferrin on agar-plate medium; type: cell-based
Description: as §2, §3

[7] = tested on: Bacillus subtilis ATCC 6633; test: MIC of apolactoferrin on agar-plate medium; type: cell-based
Description: as §2, §3

Pr. inconstans IFO 12930 = test: MIC of apolactoferrin on agar-plate medium; type: cell-based
Description: as §2, §3

[8] = tested on: Micrococcus lutens ATCC 9341; test: MIC of apolactoferrin on agar-plate medium; type: cell-based
Description: as §2, §3

[9] = tested on: Staphylococcus aureus 209p; test: MIC of apolactoferrin on agar-plate medium; type: cell-based
Description: as §2, §3

Pr. morganii GN125 = test: MIC of apolactoferrin on agar-plate medium; type: cell-based
Description: as §2, §3

[10] = tested on: Klebsiella pneumoniae GN69; test: MIC of apolactoferrin on agar-plate medium; type: cell-based
Description: as §2, §3

Enterobacter feacalis 64 = test: MIC of apolactoferrin on agar-plate medium; type: cell-based
Description: as §2, §3

Salmonella typhi = test: MIC of apolactoferrin on agar-plate medium; type: cell-based
Description: as §2, §3

Salmonella paratyphi A = test: MIC of apolactoferrin on agar-plate medium; type: cell-based
Description: as §2, §3

[11] = tested on: Staphylococcus aureus Smith; test: MIC of apolactoferrin on agar-plate medium; type: cell-based
Description: as §2, §3

[12] = tested on: Escherichia coli NIHJ JC-2; test: MIC of apolactoferrin on agar-plate medium; type: cell-based
Description: as §2, §3

[13] = tested on: Enterobacter cloacae No 91; test: MIC of apolactoferrin on agar-plate medium; type: cell-based
Description: as §2, §3

[14] = tested on: Enterobacter feacalis 95-1; test: MIC of apolactoferrin on agar-plate medium; type: cell-based
Description: as §2, §3

[15] = tested on: Staphylococcus aureus 227; test: MIC of apolactoferrin on agar-plate medium; type: cell-based
Description: as §2, §3

[16] = tested on: Citrobacter freundii GN 346; test: MIC of apolactoferrin on agar-plate medium; type: cell-based
Description: as §2, §3

Klebsiella oxytoca 1006 = test: MIC of apolactoferrin on agar-plate medium; type: cell-based
Description: as §2, §3

Escherichia coli No 35 = test: MIC of apolactoferrin on agar-plate medium; type: cell-based
Description: as §2, §3

Pr. morganii IFO 3848 = test: MIC of apolactoferrin on agar-plate medium; type: cell-based
Description: as §2, §3

Proteus mirabilis GN79 = test: MIC of apolactoferrin on agar-plate medium; type: cell-based
Description: as §2, §3

Pr. rettgeri IFO 13501 = test: MIC of apolactoferrin on agar-plate medium; type: cell-based
Description: as §2, §3

Shigella sonnei = test: MIC of apolactoferrin on agar-plate medium; type: cell-based
Description: as §2, §3

[17] = tested on: St. epidermidis ATCC 13288; test: MIC of apolactoferrin on agar-plate medium; type: cell-based, Streptococcus epidermidis
Description: as §1, §2, §3

Pseu. aeruginosa No. 11 = test: MIC of apolactoferrin on agar-plate medium; type: cell-based, Pseudomonas aeruginosa
Description: as §2, §3

[18] = tested on: Pseu. aeruginosa IFO 3445; test: MIC of apolactoferrin on agar-plate medium; type: cell-based, Pseudomonas aeruginosa
Description: as §2, §3

Pseu. aeruginosa TMS 11 = test: MIC of apolactoferrin on agar-plate medium; type: cell-based, Pseudomonas aeruginosa
Description: as §2, §3

Pseu. aeruginosa No. 47 = test: MIC of apolactoferrin on agar-plate medium; type: cell-based, Pseudomonas aeruginosa
Description: as §2, §3

B1: apolactoferrin: iron-free lactoferrin, from bovine milk (protein, UniProt P24627 20-708, looked up)
Lactotransferrin: APRKNVRWCTISQPEWFKCRRWQWRMKKLGAPSITCVRRAFALECIRAIAEKKADAVTLDGGMVFEAGRDPYKLRPVAAEIYGTKESPQTHYYAVAVVKKGSNFQLDQLQGRKSCHTGLGRSAGWIIPMGILRPYLSWTESLEPLQGAVAKFFSASCVPCIDRQAYPNLCQLCKGEGENQCACSSREPYFGYSGAFKCLQDGAGDVAFVKETTVFENLPEKADRDQYELLCLNNSRAPVDAFKECHLAQVPSHAVVARSVDGKEDLIWKLLSKAQEKFGKNKSRSFQLFGSPPGQRDLLFKDSALGFLRIPSKVDSALYLGSRYLTTLKNLRETAEEVKARYTRVVWCAVGPEEQKKCQQWSQQSGQNVTCATASTTDDCIVLVLKGEADALNLDGGYIYTAGKCGLVPVLAENRKSSKHSSLDCVLRPTEGYLAVAVVKKANEGLTWNSLKDKKSCHTAVDRTAGWNIPMGLIVNQTGSCAFDEFFSQSCAPGADPKSRLCALCAGDDQGLDKCVPNSKEKYYGYTGAFRCLAEDVGDVAFVKNDTVWENTNGESTADWAKNLNREDFRLLCLDGTRKPVTEAQSCHLAVAPNHAVVSRSDRAAHVKQVLLHQQALFGKNGKNCPDKFCLFKSETKNLLFNDNTECLAKLGGRPTYEEYLGTEYVTAIANLKKCSTSPLLEACAFLTR
modifications: iron-free
notes: iron-free lactoferrin, from bovine milk
minimum inhibitory concentrations (most pathogenic bacteria): more than 6,400 μg/ml
Minimum Inhibitory Conc. [1]: > 6,400 μg/ml
Minimum Inhibitory Conc. [2]: > 6,400 μg/ml
Minimum Inhibitory Conc. (Kleb. pneumoniae 3K25): > 6,400 μg/ml
Minimum Inhibitory Conc. [3]: > 6,400 μg/ml
antibacterial activity by degree of iron saturation (bacteria): the most potent
Minimum Inhibitory Conc. (Citrobacter freundii 2): > 6,400 μg/ml
Minimum Inhibitory Conc. (Pr. inconstans GN 627): > 6,400 μg/ml
Minimum Inhibitory Conc. (Serratia marcescens No 2): > 6,400 μg/ml
Minimum Inhibitory Conc. [4]: > 6,400 μg/ml
Minimum Inhibitory Conc. (Salmonella paratyphi B): > 6,400 μg/ml
Minimum Inhibitory Conc. (Pr. rettgeri GN624): 6,400 μg/ml
Minimum Inhibitory Conc. (Proteus vulgaris GN76): > 6,400 μg/ml
Minimum Inhibitory Conc. [5]: > 6,400 μg/ml
Minimum Inhibitory Conc. (Shigella flexineri): > 6,400 μg/ml
Minimum Inhibitory Conc. (Vibrio cholerae 569B): 3,200 μg/ml
Minimum Inhibitory Conc. [6]: > 6,400 μg/ml
Minimum Inhibitory Conc. (Escherichia coli C11): > 6,400 μg/ml
Minimum Inhibitory Conc. (Proteus mirabilis 1287): 3,200 μg/ml
Minimum Inhibitory Conc. [7]: 3,200 μg/ml
Minimum Inhibitory Conc. (Pr. inconstans IFO 12930): > 6,400 μg/ml
Minimum Inhibitory Conc. [8]: > 6,400 μg/ml
Minimum Inhibitory Conc. [9]: > 6,400 μg/ml
Minimum Inhibitory Conc. (Pr. morganii GN125): 3,200 μg/ml
Minimum Inhibitory Conc. [10]: > 6,400 μg/ml
Minimum Inhibitory Conc. (Enterobacter feacalis 64): 3,200 μg/ml
Minimum Inhibitory Conc. (Salmonella typhi): > 6,400 μg/ml
Minimum Inhibitory Conc. (Salmonella paratyphi A): > 6,400 μg/ml
Minimum Inhibitory Conc. [11]: > 6,400 μg/ml
Minimum Inhibitory Conc. [12]: 3,200 μg/ml
Minimum Inhibitory Conc. [13]: > 6,400 μg/ml
Minimum Inhibitory Conc. [14]: 3,200 μg/ml
Minimum Inhibitory Conc. [15]: > 6,400 μg/ml
Minimum Inhibitory Conc. [16]: > 6,400 μg/ml
Minimum Inhibitory Conc. (Klebsiella oxytoca 1006): > 6,400 μg/ml
Minimum Inhibitory Conc. (Escherichia coli No 35): 1,600 μg/ml
Minimum Inhibitory Conc. (Pr. morganii IFO 3848): > 6,400 μg/ml
Minimum Inhibitory Conc. (Proteus mirabilis GN79): > 6,400 μg/ml
Minimum Inhibitory Conc. (Pr. rettgeri IFO 13501): 3,200 μg/ml
Minimum Inhibitory Conc. (Shigella sonnei): > 6,400 μg/ml
Minimum Inhibitory Conc. [17]: 800 µg/mL
Minimum Inhibitory Conc. (Pseu. aeruginosa No. 11): > 6,400 μg/ml
Minimum Inhibitory Conc. [18]: > 6,400 μg/ml
Minimum Inhibitory Conc. (Pseu. aeruginosa TMS 11): > 6,400 μg/ml
Minimum Inhibitory Conc. (Pseu. aeruginosa No. 47): > 6,400 μg/ml

— patent publication US5198419A, “Formulated medicines for enhancing the efficacy of beta-lactam antibiotics in prophylaxis and treatment against infectious disease due to pathogenic bacteria” (Immuno Japan Inc., priority 1989, dated 1993)
